Measured values reported in paper PMC6402988 (Nature structural & molecular biology, 2019).
Where a chain is given by its changes, count along the chain named.

Columns and labels:
[1] = target: T1, cleaved Ebola virus glycoprotein (EBOV GPCL) (Zaire ebolavirus, Mayinga-76); experiment: cell-based or functional assay
T1 chain 1: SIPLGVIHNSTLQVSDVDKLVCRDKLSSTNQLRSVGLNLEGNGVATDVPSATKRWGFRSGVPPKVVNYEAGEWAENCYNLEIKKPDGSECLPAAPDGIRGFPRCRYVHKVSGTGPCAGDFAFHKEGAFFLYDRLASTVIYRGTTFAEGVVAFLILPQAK
T1 chain 2: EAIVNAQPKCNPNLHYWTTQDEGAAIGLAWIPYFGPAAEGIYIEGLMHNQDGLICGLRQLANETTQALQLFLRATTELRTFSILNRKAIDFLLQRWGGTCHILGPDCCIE

[2] = target: T1, cleaved Ebola virus glycoprotein (EBOV …); experiment: BLI
SUDV GP ectodomain = SUDV GP ectodomain (Sudan ebolavirus; strain not named for …, UniProt Q66814); experiment: cell-based or functional assay

B1: ADI-15946 IgG (antibody, V domains shown)
VH: EVQLVESGGGLVKPGGSLRLSCAASGFTFSNAWMSWVRQAPGKGLEWVGRIKSKTDGGTIDYAAPVKGRFTISRDDSKNTVYLQMTSLKTEDTAVYYCTTYTEDMRYFDWLLRGGETFDYWGQGTLVTVSS
VL: DIRLTQSPSSLSASVGDRVTITCRASHYISTYLNWYQQKPGKAPKLLIYAASNLQSGVPSRFSGSGFGTDFSLTISSLQPEDFATYHCQQSYSTPGRYTFGQGTKVEIK
neutralization potency against rVSV-EBOV GPCL compared to rVSV-EBOV GPFL [1]: 100 fold | fold improvement in binding (KDapp) against full-length GP [2]: 10000 fold | fold increased kon against EBOV GPFL [2]: 10 fold | fold slower koff against EBOV GPFL [2]: > 1000 fold

B2: 46M2 (antibody, V domains shown)
VH: B1 VH with R106A
VL: B1 VL with S65Y
fold improvement in neutralization of authentic SUDV against parental ADI-15946 (SUDV GP ectodomain): 33 fold

B3: ADI-15946 LC^WT:HC^IGL (antibody, V domains shown)
VH: not shown
VL: B1 VL
binding result [2]: binds

B4: 46M3 (antibody, V domains shown)
VH: B1 VH with R106A
VL: B1 VL with S65Y, F67Y
fold improvement in neutralization of authentic SUDV against parental ADI-15946 (SUDV GP ectodomain): 33 fold
